Experimental findings from article PMC8486122 (2021) are described below.

For this assay, the target named is RTX751 (ACT residues 751–1706) (Bordetella pertussis, UniProt P0DKX7 751-1706). In words: SPR.

What is called koff is the rate constant with which the complex falls apart.

RTX751 (ACT residues 751–1706), sequence (P0DKX7 751-1706): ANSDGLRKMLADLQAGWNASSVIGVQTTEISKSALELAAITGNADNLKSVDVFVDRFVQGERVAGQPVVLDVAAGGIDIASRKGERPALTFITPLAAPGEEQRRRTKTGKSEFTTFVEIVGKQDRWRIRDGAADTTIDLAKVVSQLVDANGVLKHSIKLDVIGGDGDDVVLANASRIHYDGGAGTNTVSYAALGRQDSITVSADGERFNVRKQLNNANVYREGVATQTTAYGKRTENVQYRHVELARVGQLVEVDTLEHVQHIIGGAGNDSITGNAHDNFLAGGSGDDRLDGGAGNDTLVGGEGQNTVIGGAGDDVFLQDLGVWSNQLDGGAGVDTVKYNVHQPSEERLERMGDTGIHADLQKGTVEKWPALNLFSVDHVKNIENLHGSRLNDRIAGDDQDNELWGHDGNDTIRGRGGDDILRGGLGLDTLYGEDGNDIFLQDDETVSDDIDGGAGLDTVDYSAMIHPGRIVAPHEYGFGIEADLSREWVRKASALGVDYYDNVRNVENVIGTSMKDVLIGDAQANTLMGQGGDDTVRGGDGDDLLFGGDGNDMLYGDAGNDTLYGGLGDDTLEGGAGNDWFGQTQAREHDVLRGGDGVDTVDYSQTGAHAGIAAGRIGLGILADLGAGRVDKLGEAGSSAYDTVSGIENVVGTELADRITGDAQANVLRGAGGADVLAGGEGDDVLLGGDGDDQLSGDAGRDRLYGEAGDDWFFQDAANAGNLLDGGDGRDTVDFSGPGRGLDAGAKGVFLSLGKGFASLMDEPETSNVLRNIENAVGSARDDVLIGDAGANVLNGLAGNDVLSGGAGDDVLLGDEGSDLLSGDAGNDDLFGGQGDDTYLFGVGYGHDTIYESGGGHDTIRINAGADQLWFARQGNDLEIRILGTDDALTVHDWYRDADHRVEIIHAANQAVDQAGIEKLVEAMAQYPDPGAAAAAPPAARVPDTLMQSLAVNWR

B1: M1H5 Fab (Fab, V domains shown)
VH: EVNLVESGGDLVKPGGSLKLSCAASGFTFSSYGMSWVRQTPDKRLEWVATISSGGTYTYYPDSVKGRFTISRDNAKNTLYLQMSSLKSEDTAMYYCAREIMRGGGYYFDYWSQGTTLTVSS
VL: DIQMIQSTSSLSASLGDRVTISCRASQDISNYLNWYQQKPDGTVKLLIYYTSRLHSGVPSRFSGSGSGTDYSLTISNLEQEDIATYFCQQGNTLPYTFGGGTKLEIK
Turning to B1, the koff came to 0.00102 s⁻¹.

B2: M2B10 Fab (Fab, V domains shown)
VH: EVQLQQSGAELVRPGTSVKVSCKASGYAFTNYLIEWVKQRPGQGLEWIGVINPGIGNTNYNEKFKGKATLTADKSSSTVYMQLSSLTSDDSAVYFCARGLNYGSSQHWYFDVWGAGTSVTVSS
VL: IVMTQSPAILSASLGERVTMTCTASSSVSSSYLHWYQQKPGSSPKLWIYSTSNLASGVPARFSGSGSGTSYSLTISSMEAEDAATYYCHQYHRSPPTFGAGTKLEIK
The molecule B2 registered a koff of 0.00121 s⁻¹. The koff values of the last two molecules are within 1.5-fold of each other.
